The record followed here is doi:10.1101/2023.11.22.568272, “Sec7 regulatory domains scaffold autoinhibited and active conformations” (bioRxiv, 2023).

The data set concerns the molecule itself. The data set can be described thus: cryo-EM structure; single-particle cryoEM of purified full-length T. terrestris Sec7 with 2 mM fluorinated fos-choline 8; C2 symmetry for the dimer consensus map (5.3 Å), focused monomer map 3.7 Å, composite dimer model.

B1: full-length Sec7 from Thielavia terrestris (natural protein)
chain: MEQKLISEEDLNSAVDHHHHHHRIPGLINSSLKFVVSSLDIIAAQAGRNKQLAELAEKALAAIKENDQQLPDPEVVFAPLQLATKSGTIPLTTTALDCIGKLISYSYFSAPSSSATQDGTEQTPLIERAIDTICDCFQGETTLVEIQLQIVKSLLAAVLNDKIIVHGAGLLKAVRQVYNIFLLSRSTANQQVAQGTLTQMVGTVFERVKTRLHMKEARANLGRLKASRSSLAVDRSDDQDSQAGKVDGEDATVETVSDATPSESVDKAGGGKLTLKDLEHRKSFDDSHMGDGPTMVSQVKPMKKASRSVSEQSLQESPQDETPESLDAEDEAYIRDAYLVFRSFCNLSTKILPPDQLYDLRGQPMRSKLISLHLIHTLLNNHITVFTSPLCTIRNTKNNEPTNFLQAIKYYLCLSITRNGASSVDRVFDICCEIFWLMLKYMRSSFKNEIEVFLNEIYLALLARRNAPLSQKLTFVGILKRLCEDPRALVELYLNYDCNQNVDNIFQTIVEDLSRFATASVPITPTQEQQYEESRSKSATAGEWQIKSVLPPPLSVALIATNHEADTELPKEYVMKRTALDSLVETLRSLVHWSQPGRPELNGASGDVQRRTSSDDLGDSIDPSMSETASRMEVPIAPATPVIDDDPDQLEKEKARKTAMTNAIKVFNFKPKHGIKLLIKEGFIPSDKPEDIARFLLREERLDKAQIGEYLGEGDQKNVDIMHAFVDMMDFSKKRFVDALREFLQAFRLPGEAQKIDRFMLKFAHRYVTGNPNAFANADTPYVLAYSVIMLNTDLHSSKVVKRMSKAEFIKNNRGINDNADLPDEYLIGIYDDIASNEIVLKSEREAAAAAGTLPAQSTGLAGLGQAFSNVGRDLQREAYVQQSEEISLRSEQLFRDLYRSQRKSATKGGVKFISATSFKHVGPMFDATWMSFFSTLSSLVQKTHNLDVNKLCLEGMKLATKIACLFDLSTPREAFISMLKNTANLNNPREMQAKNVEALKVLLDLAQTEGNYLKESWKDVLLCISQLDRLQLISGGVDESAVPDVSRARFVPPPRTETGESRKSTSSARRTRPRAHTGPQGVSLEIALESRSDEVIKSVDRIFTNTANLSRDAIIHFARALTEVSWDEIKVSGSNDSPRTYSLQKIVEISYYNMTRVRFEWSHIWDVLGEHFNRVGCHANTAIVFFALDSLRQLSMRFMEIEELAGFKFQKDFLKPFEHVMSNSSNVTVKDMVLRCLIQMIQARGENIRSGWRTMFGVFTVAAREPYESIVNLAYENVTQVYKTRFGVVISQGAFTDLIVCLTEFSKNMRFQKKSLQAMETLKSVIPTMLKTPECPLSQHKPTATTASGSESHSKKAAVQQTRTSVEEGFWFPVLFAFHDVLMTGEDLEVRSNALNYFFETLLRYGGDFPPEFWDILWRQQLYPIFMVLRSRPEMTNALNHEELSVWLSTTMIQALRNMITLFTHYFDALEYMLDRFLELLALCICQENDTIARIGSNCLQQLILQNVTKFTAEHWAKIVGAFCELFERTTAYQLFSATTINSTASLSPPPSGLELGGPLSPTSATAPVDGKSLKINGVETNGQTPGAEPANGDADGNGTAAAAADASAPAATPQPQQGPAQQLEEFKPNNPLQQQPVVVTAARRRFFNRIISRCVLQLLMIETVNELFSNDAVYAQIPSAELLRLMALLKKSFLFAKRFNADKDLRMRLWREGFMKQPPNLLKQESGSAATYVAILFRMFGDTAPDRRGSRADVEAALVPLCRDIIRGYTALDDESQHRNIVAWRPVVVDVLEGYAAFPRDAFAAHIRSFYPLVVELLGKDLGQDLRAALLLVLRRVGEVGLGIEGMGSGGAAAAAAAGAAAASSGQGNGNGAAAAAADSERRSSVLSVPSGPRHTPSMDSLNDDPSRQVMGKAEQKLISEEDLNSAVDHHHHHH
In the case of B1, the “stoichiometry N” value came to 2.

As usually defined, the stoichiometry N is the number of molecules, sites or subunits per partner or assembly.
